From patent US20130295106A1 (ONCOMED PHARMACEUTICALS, published 2013)

Experiments:
[1] = molecular target: T1, human FZD9 expressed on transfected HEK293 cells (human, UniProt O00144 23-591); assay: flow cytometry, HEK293 cells transiently co-transfected with FZD expression vector and GFP
T1 sequence: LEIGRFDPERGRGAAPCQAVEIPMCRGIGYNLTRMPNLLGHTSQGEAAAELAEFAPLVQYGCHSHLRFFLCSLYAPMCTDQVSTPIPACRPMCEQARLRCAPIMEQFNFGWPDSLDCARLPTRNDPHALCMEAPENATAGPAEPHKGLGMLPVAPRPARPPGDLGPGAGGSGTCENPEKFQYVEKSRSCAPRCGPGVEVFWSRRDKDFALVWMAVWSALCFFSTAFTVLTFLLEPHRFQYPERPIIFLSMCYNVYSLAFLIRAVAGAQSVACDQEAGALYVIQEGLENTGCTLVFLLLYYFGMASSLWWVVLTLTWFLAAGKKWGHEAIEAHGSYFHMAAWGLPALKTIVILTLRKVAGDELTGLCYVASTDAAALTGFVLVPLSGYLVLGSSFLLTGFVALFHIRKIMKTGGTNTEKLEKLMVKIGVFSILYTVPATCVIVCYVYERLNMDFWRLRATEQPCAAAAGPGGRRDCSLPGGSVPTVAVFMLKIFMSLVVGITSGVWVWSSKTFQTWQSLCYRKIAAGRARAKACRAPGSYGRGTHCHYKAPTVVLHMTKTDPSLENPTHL
Protocol: (§1) To measure antibody binding to FZD by flow cytometry HEK293 cells were co-transfected with FZD expression vectors and the transfection marker GFP. Twenty-four to forty-eight hours post-transfection, cells were collected in suspension and incubated on ice with anti-FZD antibodies (10 μg/ml unless otherwise indicated) or control IgG to detect background antibody binding. The cells were washed and primary antibodies detected with Fc domain-specific secondary antibodies conjugated to a fluorescent chromophore (e.g. phycoerythrin conjugated anti-human IgG). Labeled cells were then analyzed by flow cytometry to identify anti-FZD antibodies that specifically recognize cell surface expression of FZD protein. Monoclonal antibodies 18R5 and 18R8 recognized FZD on transfected cells. As shown in FIG. 1 and FIG. 2, both 18R8 and 18R5 bind to multiple FZD including FZD1, FZD2, FZD5, FZD7, and FZD8. To examine the relative ability of 18R8 and 18R5 to bind to each FZD protein, titration analysis was conducted wherein the amount of antibody in the binding reaction was varied (FIG. 2).

[2] = molecular target: T2, human FZD4 expressed on transfected HEK293 cells (human, UniProt Q9ULV1 37-537); assay: as above
T2 sequence: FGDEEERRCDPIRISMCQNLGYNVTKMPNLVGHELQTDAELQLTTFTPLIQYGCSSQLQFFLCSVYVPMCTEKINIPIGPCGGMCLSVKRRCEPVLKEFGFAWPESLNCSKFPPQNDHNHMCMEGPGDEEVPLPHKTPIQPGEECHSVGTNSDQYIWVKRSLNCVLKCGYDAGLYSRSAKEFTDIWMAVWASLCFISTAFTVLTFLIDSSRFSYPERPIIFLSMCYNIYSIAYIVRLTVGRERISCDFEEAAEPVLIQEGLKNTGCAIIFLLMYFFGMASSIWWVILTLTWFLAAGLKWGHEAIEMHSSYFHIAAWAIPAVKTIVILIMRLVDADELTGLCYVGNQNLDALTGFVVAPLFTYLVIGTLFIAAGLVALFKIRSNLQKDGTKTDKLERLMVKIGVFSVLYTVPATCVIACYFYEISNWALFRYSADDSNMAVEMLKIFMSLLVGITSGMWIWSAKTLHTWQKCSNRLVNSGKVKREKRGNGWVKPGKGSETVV
Protocol: as §1

[3] = molecular target: T3, recombinant FZD1 Fc protein (Biacore) (Homo sapiens (Human), UniProt Q9UP38 70-321, limits assumed); assay: SPR, Biacore 2000; Fzd Fc immobilized on CM5 chip, IgG 100 to 0.78 nM in solution
T3 construct: also called Fzd Fc; not shown: Fc part, not described
Protocol: (§2) The KDs of 18R8 and 18R5 antibodies were determined using the Biacore 2000 system from Biacore Lifescience (GE Healthcare). Specifically, purified anti-Fzd7 antibodies were serially diluted in 2-fold increments from 100 to 0.78 nM in HBS-P (0.01 M HEPES pH 7.4, 0.15 M NaCl, 0.005% v/v Surfactant P20). Each dilution was tested against recombinant Fzd Fc proteins immobilized onto a CM5 Biacore chip. The association and dissociation rates were measured and KD values determined using the Biaevaluation software program (Table 5, below).

[4] = molecular target: T4, recombinant FZD7 Fc protein (Biacore) (Homo sapiens (Human), UniProt O75084 33-255, limits assumed); assay: as above
T4 construct: also called Fzd Fc; not shown: Fc part, not described
Protocol: as §2

[5] = molecular target: T5, recombinant FZD2 Fc protein (Biacore) (Homo sapiens (Human), UniProt Q14332 24-250, limits assumed); assay: as above
T5 construct: also called Fzd Fc; not shown: Fc part, not described
Protocol: as §2

[6] = molecular target: T6, FZD5-Fc (Homo sapiens (Human), UniProt Q13467 27-233, limits assumed); assay: as above
T6 construct: also called recombinant FZD5 Fc protein; not shown: Fc part, not described
T6 sequence: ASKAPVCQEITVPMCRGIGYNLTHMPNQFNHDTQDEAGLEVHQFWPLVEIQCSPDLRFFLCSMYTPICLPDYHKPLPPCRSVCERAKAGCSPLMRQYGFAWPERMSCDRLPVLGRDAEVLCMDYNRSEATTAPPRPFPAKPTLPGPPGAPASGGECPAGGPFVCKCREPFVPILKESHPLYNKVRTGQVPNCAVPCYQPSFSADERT
Protocol: as §2

T5 sequence (Q14332 24-250 limits assumed): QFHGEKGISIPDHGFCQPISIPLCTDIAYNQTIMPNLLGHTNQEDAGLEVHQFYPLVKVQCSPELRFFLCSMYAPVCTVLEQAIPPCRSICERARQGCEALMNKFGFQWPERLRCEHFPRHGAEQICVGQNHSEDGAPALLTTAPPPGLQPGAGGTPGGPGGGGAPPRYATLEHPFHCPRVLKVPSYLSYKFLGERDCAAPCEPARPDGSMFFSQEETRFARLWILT
T3 sequence (Q9UP38 70-321 limits assumed): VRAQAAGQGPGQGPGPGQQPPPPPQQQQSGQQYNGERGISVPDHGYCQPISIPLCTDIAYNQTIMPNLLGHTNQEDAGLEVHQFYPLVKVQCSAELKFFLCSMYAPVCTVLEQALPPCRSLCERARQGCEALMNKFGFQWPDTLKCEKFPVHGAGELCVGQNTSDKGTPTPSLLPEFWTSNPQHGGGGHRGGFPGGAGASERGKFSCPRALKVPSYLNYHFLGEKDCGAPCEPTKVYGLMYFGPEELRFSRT

binding result [1]: no binding (tested: 10 ug/ml)
binding result [2]: no binding (tested: 10 ug/ml)
Kd [3]: 15.6 nM
Kd [4]: 5.2 nM
Kd [5]: 6.2 nM
Kd [6]: 4.2 nM
B1: 18R8 IgG antibody (human IgG2, lambda) (antibody, V domains shown)
VH: EVQLVESGGGLVQPGGSLRLSCAASGFTFSHYTLSWVRQAPGKGLEWVSVISGDGSYTYYADSVKGRFTISSDNSKNTLYLQMNSLRAEDTAVYYCARNFIKYVFANWGQGTLVTVSS
VL: DIELTQPPSVSVAPGQTARISCSGDKLGKKYASWYQQKPGQAPVLVIYEKDNRPSGIPERFSGSNSGNTATLTISGTQAEDEADYYCSSFAGNSLEVFGGGTKLTVLG
notes: Expressed in CHO cells, protein A purified; also called 18R8 IgG2 antibody; anti-FZD antibody 18R8
